Measurements as given in patent US20210403546A1 (LUDWIG INSTITUTE FOR CANCER RESEARCH, published 2021).

How the values were obtained:
human recombinant TGF-b1 [1] = target: T1, human recombinant TGF-b1 (human, UniProt P01137 279-390); assay: TGFb specificity ELISA, HEK293-6E supernatant
T1 construct: also called TGF-β1; hTGF-β1

human recombinant TGF-b1 [2] = target: T1, human recombinant TGF-b1; assay: phage ELISA on plate-coated TGF-b1, anti-fd detection
Experimental: (§1) To perform the ELISA a 96-well maxisorp Nunc-immunoplate (Thermo Scientific, cat. #2022-10) was coated with 50 μl/well of human recombinant TGF-b1 (Acrobiosystems, cat. #TG1-H4212), TGF-b2 (R&D Systems, cat. #302-B2-010) and human recombinant TGF-b3 (Shenandoah Biotechnology, cat. #100-109) at 500 ng/ml in PBS at 4° C. overnight. Wells were blocked by the direct addition of 230 μl of block solution (5% skimmed milk/0.05% Tween20 in PBS) without first washing the plate. Blocking was carried out for 45 min with gentle agitation. Concurrently, the bacterial cultures containing the expressed scFv and the rescued phage were blocked by the direct addition of 120 μl of block solution. The blocked maxisorp plate was washed 3× with PBST (PBS+0.1% Tween20) before applying 150 μl of blocked scFv or phage culture to the wells. Incubation was performed for 1 h at room temperature with gentle agitation before washing of the wells with 4×PBST.
For the phage ELISA, 100 μl of primary rabbit anti-fd bacteriophage Ab (Sigma, cat. #B7786) diluted 1/1000 in PBS+1% BSA was added to wells followed by a 1 h incubation at room temperature with gentle agitation. The plate was washed 4× with PBST before the addition of 100 μl of secondary mouse anti-rabbit IgG (Y-chain specific) HRP conjugate (Sigma, cat. #A1949) diluted 1/15000 in PBS+1% BSA. […]

human recombinant TGF-b1 [3] = target: T1, human recombinant TGF-b1; assay: SPR (Biacore T200), 10 nM Fab over amine-coupled TGFb1 (492 RUs); reference of the ranking
Experimental: FIG. 27 provides Biacore analysis of the new mutant variant antibodies and compares the new mutants versus parent variant 13A1-2F and versus mu13A1. Selected variants have different monovalent (huIgG1 stabilized Fab format). Biacore binding kinetics, range from lower to higher than the parental mouse 13A1 (mu13A1, hybrid with mouse VK/VH and huCK/huCH1). The data presented is ka, kd and apparent KD. TGFb1 (chip): 492 Rus, Fabs: 10 nM, Flow rate: 30 ul/min, Contact time: 510s, Diss. Time: 600s. Quality: Chi(2)<=1% Rmax and U score <=5. Data is presented for mutant variant antibodies 13A1_AF, 13A1_AG, 13A1_AH, 13A1_BF, 13A1_BG, 13A1_BH, 13A1_CF, 13A1_CG, 13A1_CH, 13A1_DF, 13A1_DG, 13A1_DH, 13A1_EF, 13A1_EG and 13A1_EH.
SPR binding analysis of Fabs: Experiments were performed using the Biacore T200 equipped with the Series S sensor chip CMS (GE Healthcare, cat. #BR-1005-30). The instrument temperature was set at 25° C. for all steps in the analysis while the compartment temperature was set at 10° C. All the assays were performed using the running buffer HBS-EP+ 1×. Recombinant TGF-β1 (Biocat, cat. #TG1-H4212-50 ug-AC) was immobilized with the standard amine-coupling chemistry using a solution of the ligand at 1 ug/mL in acetate, pH 4.5. Recombinant TGF-β1 was injected for several minutes to achieve a target density of 492 RUs. […]

human recombinant TGF-b1 [4] = target: T1, human recombinant TGF-b1; assay: ELISA, soluble scFv on plate-coated TGFb isoforms
Experimental: as §1
For the scFv ELISA, 100 μl of primary mouse 9E10 anti-cmyc Ab diluted 1/1000 in PBS+1% BSA was added to wells, followed by a 1 h incubation at room temperature with gentle agitation. […] The ELISA was developed by the addition of 100 μl/well of TMB substrate (ThermoFischer Scientific, cat. #34021), stabilized with 50 μl/well of stop solution (2N sulfuric acid) and absorbance signals read at 450 nm and 620 nm.

T1 sequence (P01137 279-390 limits assumed): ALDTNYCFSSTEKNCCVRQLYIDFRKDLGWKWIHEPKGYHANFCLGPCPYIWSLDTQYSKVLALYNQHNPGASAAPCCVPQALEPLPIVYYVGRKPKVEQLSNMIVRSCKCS

B1: 13A1_Glv1 (graft) human IgG1 (antibody, V domains shown)
VH: QVQLVQSGAEVKKPGASVKVSCKASGYTFTNYWMHWVRQAPGQGLEWIGTIYPGNSDTNYNQKFKGRVTMTRDTSTSTVYMELSSLRSEDTAVYYCTREDSRSLYYNGWDYFDYWGQGTLVTVSS
VL: DIVLTQSPASLAVSPGQRATITCRASESVDNYGISFLNWYQQKPGQPPKLLIYAASNQGSGVPARFSGSGSGTDFTLTINPVEADDTANYYCQQSKEVPRTFGGGTKVEIK
notes: also called LCR13A1_GLv1; grafted human IgG1 13A1
- binding result (human recombinant TGF-b1 [1]): binds

B2: LCR13A1 Phage (murine 13A1 scFv fused to pIII on filamentous phage) (scFv)
scFv: DIVLTQSPASLAVSLGQRATISCRASESVDNYGISFLNWFQQKPGQPPKLLIYAASNQGSGVPARFSGSGSGTDFSLNIHPMEEDDTGMYFCQQSKEVPRTFGGGTKLEIKRTVAARQEGGSGEGGSGESNAAAEVQLQQSGTVLARPGASVKMSCKTSGYTFTNYWMHWVRQRPGQGLEWIGTIYPGNSDTNYNQKFKDKAKLTAVTSATTAYMELSSLTNEDSAVYFCTREDSRSLYYNGWDYFDYWGQGTLVTVSSASTKAS
notes: not shown: pIII coat protein of filamentous bacteriophage (fusion partner from phagemid pCHV101)
- binding result (human recombinant TGF-b1 [2]): binds

B3: 13A1 mouse parental hybrid stabilized Fab (mu13A1) (Fab, V domains shown)
VH: EVQLQQSGTVLARPGASVKMSCKTSGYTFTNYWMHWVRQRPGQGLEWIGTIYPGNSDTNYNQKFKDKAKLTAVTSATTAYMELSSLTNEDSAVYFCTREDSRSLYYNGWDYFDYWGQGTTLTVSS
VL: not shown
notes: also called parental mouse Fab [chimeric, mVHhCH1/mVKhCK]; LCR13A1_VK(murine) + LCR13A1_VH(murine)
- binding result (human recombinant TGF-b1 [3]): binds

B4: 13A1_GLv1_scFv (CDR-grafted scFv, IGKV7-3*01/IGHV1-46*01) (scFv)
scFv: DIVLTQSPASLAVSPGQRATITCRASESVDNYGISFLNWYQQKPGQPPKLLIYAASNQGSGVPARFSGSGSGTDFTLTINPVEADDTANYYCQQSKEVPRTFGGGTKLEIKRTVAARQEGGSGEGGSGESNAAAQVQLVQSGAEVKKPGASVKVSCKASGYTFTNYWMHWVRQAPGQGLEWIGTIYPGNSDTNYNQKFKGRVTMTRDTSTSTVYMELSSLRSEDTAVYYCTREDSRSLYYNGWDYFDYWGQGTLVTVSSASTKAS
notes: Orientation VK-linker-VH; expressed in E. coli from pCHV101; also called LCR13A1_Glv1 scFv
- binding result (human recombinant TGF-b1 [4]): binds
